According to article PMC4333400 (Nucleic Acids Research, 2015):
Like-named read-outs stand apart in the source and are kept apart here.

How the values were obtained:
EcMazE1-50 [1] = molecular target: T1, EcMazE1-50 (Escherichia coli, UniProt P0AE72 1-50); assay: ITC
T1 chain: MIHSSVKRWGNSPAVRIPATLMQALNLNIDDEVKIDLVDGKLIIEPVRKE

EcMazE1-50 [2] = molecular target: T1, EcMazE1-50; assay: NMR
EcMazE1-50 [3] = molecular target: T1, EcMazE1-50; assay: ITC
NMR solution structure = molecular target: the molecule itself; assay: NMR solution structure
[4] = molecular target: EcMazE full-length;EcMazF (Escherichia coli;Escherichia coli, UniProt P0AE72;P0AE70 1-82;1-111, |); assay: EMSA
EcMazE full-length = EcMazE full-length (Escherichia coli, UniProt P0AE72 1-82); assay: ITC
Chain of EcMazE full-length (P0AE72 whole entry): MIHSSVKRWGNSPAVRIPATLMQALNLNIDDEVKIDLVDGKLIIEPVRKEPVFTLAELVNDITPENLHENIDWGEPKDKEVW

Chain of EcMazE full-length;EcMazF (P0AE70 whole entry, one chain of several): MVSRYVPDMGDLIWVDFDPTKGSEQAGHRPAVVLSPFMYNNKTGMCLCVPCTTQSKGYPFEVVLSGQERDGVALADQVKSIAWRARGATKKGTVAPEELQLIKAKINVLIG

B1: DNA 'b' (dsDNA)
DNA 1: ATATACTGTATCTACATAT
DNA 2: ATATGTAGATACAGTATAT
Kd (EcMazE1-50 [1]): 2100 ± 600 nM

B2: DNA 'a' (15 bp, altered ends) (dsDNA)
DNA 1: CGTGATATATACTGC
DNA 2: GCAGTATATATCACG
binding result (EcMazE1-50 [2]): binds

B3: DNA 'c' (dsDNA)
DNA 1: GTATCTACAATGTAGATTG
DNA 2: CAATCTACATTGTAGATAC
Kd (EcMazE1-50 [1]): 600 ± 200 nM

B4: DNA 'cab' (dsDNA)
DNA 1: CTCGTATCTACAATGTAGATTGATATATACTGTATCTACATATGATAGCGT
DNA 2: ACGCTATCATATGTAGATACAGTATATATCAATCTACATTGTAGATACGAG
Kd (EcMazE1-50 [3]): 600 ± 500 nM

B5: truncated EcMazE^1–50 (N-terminal DNA binding domain of Escherichia coli antitoxin MazE) (domain or fragment)
chain: MIHSSVKRWGNSPAVRIPATLMQALNLNIDDEVKIDLVDGKLIIEPVRKE
stoichiometry N (NMR solution structure): 2

B6: DNA 'a' (EMSA probe) (dsDNA)
DNA 1: TTGATATATACTGT
DNA 2: ACAGTATATATCAA
binding result [4]: binds

B7: DNA 'a' (14 bp) (dsDNA)
DNA 1: TTGATATATACTGT
DNA 2: ACAGTATATATCAA
Kd (EcMazE1-50 [1]): 5600 ± 300 nM
Kd (EcMazE full-length): 5100 ± 200 nM
